Measured values reported in patent US20190321303A1.

Legend:
Assay in all cases: cell-based or functional assay
[1] = target: Chymotrypsin having an activity of approx. 40 BTEE units per mg
[2] = target: Chymotrypsin having an activity of approx. 40 BTEE units per mg; conditions: scale: mg ChymoTrypsin inhibited/1 mgP-ChymoTrypsin Inhibitor
[3] = target: Trypsin having an activity of approx. 10,000 BAEE units per mg
[4] = scale: mg ChymoTrypsin inhibited/1 mgP-ChymoTrypsin Inhibitor

In the case of “Bowman-Birk inhibitor (BBI) purified from soy flour”, the BBI activity of final product, after the change of the filtration process [1] was 0.8 to 1.4 mg⁻¹, the BBI activity of final product, before the change of the filtration process [1] was 0.4 to 0.6 mg⁻¹ and the BBI activity, step: Final after lyophilization "as-is" (mg chymotrypsin inhibited per mg solid) [1] was 0.8. It also gave a Chymotrypsin inhibitor activity of purified BBI (mg chymotrypsin inhibited per mg) [1] of 1.49, a BBI activity, step: BBI permeate of 30 Kda. [1, 4] of 0.8 and a BBI activity, step: BBI pool [1, 4] of 0.5. For the same substance, the BBI activity, step: Permeate of 5 KDa [1, 4] was 0.13, the BBI activity, step: Retentate of 5 KDa after 4.5 x concentration [1, 4] was 0.8 and the BBI activity, step: Retentate of 10 Kda after diafiltration [1, 4] was 0.7. It also gave a BBI activity, step: Retentate of 30 KDa [1, 4] of 0.13, a BBI activity, final lyophilized product on the basis of dry weight ([1]; scale: mg chymotrypsin inhibited per mg dry weight) of 0.9 and a BBI Activity, large-scale prep ([1]; scale: not given) of 1.49. The BBI Activity, previous procedure ([1]; scale: not given) was 1.2, the BBI activity, step: BBI After formulation and microfiltration 0.45/0.2 [2] was 0.8 and the BBI activity, step: BBI permeate, after 30 Kda UF and additional washes [2] was 0.8. For the same substance, the BBI activity, step: BBI pool [2] was 0.6, the BBI activity, step: BBI pool after microfiltration 0.45/0.2 [2] was 0.6 and the BBI activity, step: Final after lyophilization [2] was 0.9. For the same substance, the BBI activity, step: Retentate of 5 KDa after 5x concentration [2] was 0.9 and the BBI activity, step: Retentate of 10 Kda after diafiltration [2] was 1.

“SBTI intermediate (crude soybean trypsin inhibitor preparation from soy flour)” was tested, and the KTI activity, quality control of material loaded on the DEAE column [3] was 0.97 not printed, the Trypsin inhibitor activity of SBTI intermediate (large-scale prep) (mg trypsin inhibited per mg protein) [3] was 1.34 and the BBI activity, quality control of material loaded on the DEAE column [1] was 0.09 not printed. For the same substance, the Chymotrypsin inhibitor activity of SBTI intermediate (large-scale prep) (mg chymotrypsin inhibited per mg protein) [1] was 0.98.
